Patent US20230279104A1 (KOREA RESEARCH INSTITUTE OF BIOSCIENCE AND BIOTECHNOLOGY, published 2023)

Biological target: T1, human transmembrane 4 L6 family member 5 (TM4SF5) on cells (human, UniProt O14894 1-197)
T1 construct: whole, on cells; also called endogenous TM4SF5; TM4SF5 protein
T1 sequence (looked up): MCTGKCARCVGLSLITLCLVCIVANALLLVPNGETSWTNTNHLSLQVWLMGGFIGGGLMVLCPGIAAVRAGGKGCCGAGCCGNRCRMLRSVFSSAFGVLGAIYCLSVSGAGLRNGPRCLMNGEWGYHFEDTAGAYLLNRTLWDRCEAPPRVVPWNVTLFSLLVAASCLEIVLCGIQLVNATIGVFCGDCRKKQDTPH
Test: flow cytometry, internalization analysis on SNU449Tp cells
Method: Cells were transferred to ice-cold buffer to stop the occurrence of internalization and stained with FITC-conjugated anti-human IgG. PI⁻ cells were analyzed by flow cytometry.

B1: humanized monoclonal antibody Ab27-hz9 (scFv-hFc form) (antibody, V domains shown)
VH: QVQLVQSGAEVKKPGASVKVSCKASGYTFTDYEMHWVRQAPGQGLEWMGAIDPETGGTAYNQKFKGRVTMTADKSISTAYMELSRLRSDDTAVYYCARPYLGYWGQGTLVTVSS
VL: EIVLTQSPGTLSLSPGERATLSCRSSQSLVHSNGNTYLHWYQQKPGQAPRLLIYKVSNRFSGIPDRFSGSGSGTDFTLTISRLEPEDFAVYYCFQGSHIPLTFGQGTKVEIK
notes: VH and VK genes were synthesized in scFv format and inserted into the pDR-OriP-Fc1 vector, so the molecule tested is an scFv-human Fc fusion; Frameworks are IGHV1-2 and IGKV3-20 with murine residues kept at H71 and H73; also called humanized Ab27
binding result: binds
